Experimental data taken from patent US20240158538A1 (HUMMINGBIRD BIOSCIENCE HOLDINGS PTE, published 2024).
Read-outs that look alike come from different tables or passages of the source. Values belong to the binder of their own block, whether it stands above or below them.

Legend:
B7H3 (ELISA coat) [1] = target: T1, B7H3 (ELISA coat) (human, UniProt Q5ZPR3 29-461, limits assumed); assay: ELISA, B7H3 coated
T1 construct: Species read from the list 'human VISTA, PD-1, PD-L1, ...'; also called CD276
T1 sequence (looked up): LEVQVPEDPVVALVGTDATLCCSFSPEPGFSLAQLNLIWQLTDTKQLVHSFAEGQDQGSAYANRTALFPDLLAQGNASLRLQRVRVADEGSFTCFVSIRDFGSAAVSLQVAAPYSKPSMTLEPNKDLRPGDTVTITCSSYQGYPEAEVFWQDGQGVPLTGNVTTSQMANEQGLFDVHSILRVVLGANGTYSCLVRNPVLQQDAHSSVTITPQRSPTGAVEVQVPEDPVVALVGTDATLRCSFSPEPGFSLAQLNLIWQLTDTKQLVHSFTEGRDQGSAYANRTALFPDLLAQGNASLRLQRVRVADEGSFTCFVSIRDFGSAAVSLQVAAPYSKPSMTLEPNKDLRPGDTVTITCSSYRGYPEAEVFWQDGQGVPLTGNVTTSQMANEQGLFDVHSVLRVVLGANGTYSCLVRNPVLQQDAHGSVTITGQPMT

CTLA4 (ELISA coat) [2] = target: T2, CTLA4 (ELISA coat) (human, UniProt P16410 36-162, limits assumed); assay: ELISA, CTLA4 coated
T2 construct: Species read from the list 'human VISTA, PD-1, PD-L1, ...'

human HER3 = human HER3 (human, UniProt P21860 20-643); assay: ELISA, human HER3 coated
human PD-L1 (ELISA coat) [3] = target: T3, human PD-L1 (ELISA coat) (human, UniProt Q9NZQ7 19-239); assay: ELISA, human PD-L1 coated
PD-1 (ELISA coat) [4] = target: T4, PD-1 (ELISA coat) (human, UniProt Q15116 25-167, limits assumed); assay: ELISA, plate coated with PD1
T4 construct: Species read from the list 'human VISTA, PD-1, PD-L1, ...'

B7H4 (ELISA coat) [5] = target: T5, B7H4 (ELISA coat) (human, UniProt Q7Z7D3 25-258, limits assumed); assay: ELISA, plate coated with B7H4
T5 construct: Species read from the list 'human VISTA, PD-1, PD-L1, ...'; also called VTCN1
T5 sequence (looked up): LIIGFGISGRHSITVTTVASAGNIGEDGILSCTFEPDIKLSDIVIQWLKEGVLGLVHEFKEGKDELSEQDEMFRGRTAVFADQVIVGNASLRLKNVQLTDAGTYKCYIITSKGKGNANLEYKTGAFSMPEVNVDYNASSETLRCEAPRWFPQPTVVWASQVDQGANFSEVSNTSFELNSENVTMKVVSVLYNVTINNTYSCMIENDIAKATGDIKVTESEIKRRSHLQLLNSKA

B7H6 (ELISA coat) [6] = target: T6, B7H6 (ELISA coat) (human, UniProt Q68D85 25-262, limits assumed); assay: ELISA, plate coated with B7H6
T6 construct: Species read from the list 'human VISTA, PD-1, PD-L1, ...'; also called NCR3LG1
T6 sequence (looked up): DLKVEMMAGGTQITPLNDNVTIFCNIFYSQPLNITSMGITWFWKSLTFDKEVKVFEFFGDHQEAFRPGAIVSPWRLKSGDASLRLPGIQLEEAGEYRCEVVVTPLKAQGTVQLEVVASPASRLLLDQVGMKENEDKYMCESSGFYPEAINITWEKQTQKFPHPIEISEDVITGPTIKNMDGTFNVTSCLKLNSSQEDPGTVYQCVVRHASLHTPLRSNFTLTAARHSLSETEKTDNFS

B7H7 (ELISA coat) [7] = target: T7, B7H7 (ELISA coat) (human, UniProt Q9UM44 23-344, limits assumed); assay: ELISA, plate coated with B7H7
T7 construct: Species read from the list 'human VISTA, PD-1, PD-L1, ...'; also called HHLA2
T7 sequence (looked up): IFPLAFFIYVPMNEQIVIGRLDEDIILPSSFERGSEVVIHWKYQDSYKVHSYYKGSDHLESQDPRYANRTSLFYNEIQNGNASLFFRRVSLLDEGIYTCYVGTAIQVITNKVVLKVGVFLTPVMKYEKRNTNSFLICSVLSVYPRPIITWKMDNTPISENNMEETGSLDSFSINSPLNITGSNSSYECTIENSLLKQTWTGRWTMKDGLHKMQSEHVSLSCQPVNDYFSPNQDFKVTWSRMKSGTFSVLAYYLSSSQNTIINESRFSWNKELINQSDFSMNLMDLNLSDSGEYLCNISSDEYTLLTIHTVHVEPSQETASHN

PD-1 (ELISA coat) [8] = target: T4, PD-1 (ELISA coat); assay: ELISA, plate coated with PD1; remark: listed apart in the source
B7H3 (ELISA coat) [9] = target: T1, B7H3 (ELISA coat); assay: ELISA, plate coated with B7H3
B7H4 (ELISA coat) [10] = target: T5, B7H4 (ELISA coat); assay: ELISA, plate coated with B7H4; remark: listed apart in the source
B7H6 (ELISA coat) [11] = target: T6, B7H6 (ELISA coat); assay: ELISA, plate coated with B7H6; remark: listed apart in the source
B7H7 (ELISA coat) [12] = target: T7, B7H7 (ELISA coat); assay: ELISA, plate coated with B7H7; remark: listed apart in the source
CTLA4 (ELISA coat) [13] = target: T2, CTLA4 (ELISA coat); assay: ELISA, plate coated with CTLA4
human PD-L1 (ELISA coat) [14] = target: T3, human PD-L1 (ELISA coat); assay: ELISA, plate coated with B7H1 (PDL1)
PD-1 (ELISA coat) [15] = target: T4, PD-1 (ELISA coat); assay: ELISA, plate coated with PD1; remark: listed apart in the source
B7H3 (ELISA coat) [16] = target: T1, B7H3 (ELISA coat); assay: ELISA, plate coated with B7H3; remark: listed apart in the source
B7H4 (ELISA coat) [17] = target: T5, B7H4 (ELISA coat); assay: ELISA, plate coated with B7H4; remark: listed apart in the source
B7H6 (ELISA coat) [18] = target: T6, B7H6 (ELISA coat); assay: ELISA, plate coated with B7H6; remark: listed apart in the source
B7H7 (ELISA coat) [19] = target: T7, B7H7 (ELISA coat); assay: ELISA, plate coated with B7H7; remark: listed apart in the source
CTLA4 (ELISA coat) [20] = target: T2, CTLA4 (ELISA coat); assay: ELISA, plate coated with CTLA4; remark: listed apart in the source
human PD-L1 (ELISA coat) [21] = target: T3, human PD-L1 (ELISA coat); assay: ELISA, plate coated with B7H1 (PDL1); remark: listed apart in the source
PD-1 (ELISA coat) [22] = target: T4, PD-1 (ELISA coat); assay: ELISA, plate coated with PD1; remark: listed apart in the source
B7H3 (ELISA coat) [23] = target: T1, B7H3 (ELISA coat); assay: ELISA, plate coated with B7H3; remark: listed apart in the source
B7H4 (ELISA coat) [24] = target: T5, B7H4 (ELISA coat); assay: ELISA, plate coated with B7H4; remark: listed apart in the source
B7H6 (ELISA coat) [25] = target: T6, B7H6 (ELISA coat); assay: ELISA, plate coated with B7H6; remark: listed apart in the source
B7H7 (ELISA coat) [26] = target: T7, B7H7 (ELISA coat); assay: ELISA, plate coated with B7H7; remark: listed apart in the source
CTLA4 (ELISA coat) [27] = target: T2, CTLA4 (ELISA coat); assay: ELISA, plate coated with CTLA4; remark: listed apart in the source
human PD-L1 (ELISA coat) [28] = target: T3, human PD-L1 (ELISA coat); assay: ELISA, plate coated with B7H1 (PDL1); remark: listed apart in the source

T4 sequence (Q15116 25-167 limits assumed): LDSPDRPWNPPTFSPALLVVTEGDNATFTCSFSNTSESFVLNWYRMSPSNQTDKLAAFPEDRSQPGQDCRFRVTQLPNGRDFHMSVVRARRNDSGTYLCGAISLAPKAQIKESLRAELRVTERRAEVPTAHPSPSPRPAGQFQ
T3 sequence (Q9NZQ7 19-239 limits assumed): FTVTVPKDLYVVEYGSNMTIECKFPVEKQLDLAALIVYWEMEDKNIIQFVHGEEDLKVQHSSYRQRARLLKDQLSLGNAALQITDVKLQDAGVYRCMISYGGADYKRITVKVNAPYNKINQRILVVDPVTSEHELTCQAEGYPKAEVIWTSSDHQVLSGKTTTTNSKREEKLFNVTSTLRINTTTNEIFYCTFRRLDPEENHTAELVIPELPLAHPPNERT
T2 sequence (P16410 36-162 limits assumed): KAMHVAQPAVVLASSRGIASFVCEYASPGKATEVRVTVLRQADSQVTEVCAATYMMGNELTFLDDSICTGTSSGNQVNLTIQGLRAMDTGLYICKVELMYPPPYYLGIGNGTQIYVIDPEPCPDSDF

binding result (B7H3 (ELISA coat) [1]): no binding (tested: log M about -7.5) | binding result (CTLA4 (ELISA coat) [2]): no binding (tested: log M about -7.5) | binding result (human HER3): no binding (tested: log M about -6.2) | binding result (human PD-L1 (ELISA coat) [3]): no binding (tested: log M about -6.7)
B1: anti-VISTA clone 4M2-C12 IgG1 (antibody)
heavy: not shown
light: DIVITQTPAILSTSPGEKVTMTCRASSSVGYIHWYQQKPGSSPKPWIYATSNLASGVPARFSGSGSGTSNSLTITRVEAEDAATYYCQQWSSYPPITFGGGTKLEVKRTVAAPSVFIFPPSDEQLKSGTASVVCLLNNFYPREAKVQWKVDNALQSGNSQESVTEQDSKDSTYSLSSTLTLSKADYEKHKVYACEVTHQGLSSPVTKSFNRGEC
notes: also called V4; 4M2-C12-hIgG1
binding result (PD-1 (ELISA coat) [4]): no binding (tested: log -7.5 (about 3e-8 M)) | binding result (B7H4 (ELISA coat) [5]): no binding (tested: log -7.5 (about 3e-8 M)) | binding result (B7H6 (ELISA coat) [6]): no binding (tested: log -7.5 (about 3e-8 M)) | binding result (B7H7 (ELISA coat) [7]): no binding (tested: log -7.5 (about 3e-8 M))

B2: anti-VISTA clone V4-C24 IgG1 (antibody, V domains shown)
VH: QVQLQESGPGLVKPSDTLSLTCTVSGYSITSDYTWNWIRQTPGKGLEWIGHITYSGSVSYNPSLRSRVTISRDTSKNQFSLKLSSVTAADTATYSCARALYYPWYFDVWGTGTTVTVSS
VL: EIVLTQSPATLSLSPGERATLSCRASSSVGYIHWYQQKPGQAPRPLIYTTSYRATGIPARFSGSGSGTDNTLTISSLEPEDSAVYYCQQWSSYPPITFGGGTKLEVKR
notes: Human IgG1/kappa
binding result (PD-1 (ELISA coat) [8]): no binding (tested: log -7.5 (about 3e-8 M)) | binding result (B7H3 (ELISA coat) [9]): no binding (tested: log -7.5 (about 3e-8 M)) | binding result (B7H4 (ELISA coat) [10]): no binding (tested: log -7.5 (about 3e-8 M)) | binding result (B7H6 (ELISA coat) [11]): no binding (tested: log -7.5 (about 3e-8 M)) | binding result (B7H7 (ELISA coat) [12]): no binding (tested: log -7.5 (about 3e-8 M)) | binding result (CTLA4 (ELISA coat) [13]): no binding (tested: log -7.5 (about 3e-8 M)) | binding result (human PD-L1 (ELISA coat) [14]): no binding (tested: log -7.5 (about 3e-8 M))

B3: anti-VISTA clone V4-C26 IgG1 (antibody, V domains shown)
VH: QVQLQESGPGLVKPSDTLSLTCTVSGYSITSDYTWNWIRQTPGKGLEWIGHITYSGSVSYNPSLRSRVTISRDTSKNQFSLKLSSVTAADTATYSCARALYYPWYFDVWGTGTTVTVSS
VL: EIVLTQSPATLSLSPGERATLSCRASSSVGYIHWYQQKPGQAPRPIIYTTSNRATGIPARFSGSGSGTDNTLTISSLEPEDSAVYYCQQWSSYPPITFGGGTKLEVKR
notes: Human IgG1/kappa
binding result (PD-1 (ELISA coat) [15]): no binding (tested: log -7.5 (about 3e-8 M)) | binding result (B7H3 (ELISA coat) [16]): no binding (tested: log -7.5 (about 3e-8 M)) | binding result (B7H4 (ELISA coat) [17]): no binding (tested: log -7.5 (about 3e-8 M)) | binding result (B7H6 (ELISA coat) [18]): no binding (tested: log -7.5 (about 3e-8 M)) | binding result (B7H7 (ELISA coat) [19]): no binding (tested: log -7.5 (about 3e-8 M)) | binding result (CTLA4 (ELISA coat) [20]): no binding (tested: log -7.5 (about 3e-8 M)) | binding result (human PD-L1 (ELISA coat) [21]): no binding (tested: log -7.5 (about 3e-8 M))

B4: anti-VISTA clone V4-C27 IgG1 (antibody, V domains shown)
VH: QVQLQESGPGLVKPSDTLSLTCTVSGYSITSDYTWNWIRQTPGKGLEWIGHITYSGSVSYNPSLRSRVTISRDTSKNQFSLKLSSVTAADTATYSCARALYYPWYFDVWGTGTTVTVSS
VL: EIVLTQSPATLSLSPGERATLSCRASSSVGYIHWYQQKPGQAPRPLIYATYNRATGIPARFSGSGSGTDNTLTISSLEPEDSAVYYCQQWSSYPPITFGGGTKLEVKR
notes: Human IgG1/kappa
binding result (PD-1 (ELISA coat) [22]): no binding (tested: log -7.5 (about 3e-8 M)) | binding result (B7H3 (ELISA coat) [23]): no binding (tested: log -7.5 (about 3e-8 M)) | binding result (B7H4 (ELISA coat) [24]): no binding (tested: log -7.5 (about 3e-8 M)) | binding result (B7H6 (ELISA coat) [25]): no binding (tested: log -7.5 (about 3e-8 M)) | binding result (B7H7 (ELISA coat) [26]): no binding (tested: log -7.5 (about 3e-8 M)) | binding result (CTLA4 (ELISA coat) [27]): no binding (tested: log -7.5 (about 3e-8 M)) | binding result (human PD-L1 (ELISA coat) [28]): no binding (tested: log -7.5 (about 3e-8 M))
